In patent US12123876B2, “Antibody binding to HEG1 and use of the antibody for detection and treatment of mesothelioma” (Kanagawa Prefectural Hospital Organization, priority 2016, dated 2024):

Legend:
[1] = tested on: Lung carcinoma, other carcinomas, soft tissue sarcoma, bone sarcoma; test: Immunohistological staining of other carcinomas and sarcomas (detection specificity to mesothelioma); parameters: species or system human
Protocol: (§1) AMeX-fixed cell precipitates or formalin-fixed tissues were paraffin-embedded to prepare thin sections. Each of the sections was fixed to a microscope slide, and subjected to deparaffinization and dehydration with xylene and ethanol, followed by activation of an antigen under different conditions. Each section was treated with 3% hydrogen peroxide for 5 minutes to deactivate endogenous peroxidase, and then washed with PBS and blocked with 0.5% casein for 10 minutes. After 100 μL of a solution containing a primary antibody was added to each section and treated at room temperature for 2 hours, the section was washed with PBS and allowed to develop color by using a Histofine Simple Stain MAX-PO (Multi) ([…] BIOSCIENCE INC.), Ventana ultraView DAB universal kit (Roche Diagnostics K. K.), or the EnVision+kits. Each section was stained with hematoxylin and then dehydrated, and encapsulated with Malinol (MUTO PURE CHEMICALS CO., LTD.) to observe under a microscope. The conditions for activation of an antigen were as follows: at 98° C. for 40 minutes for calretinin, mesothelin, and the SKM9-2 antigen; and at 95° C. for 64 minutes for cytokeratin 5/6 (CK5/6), podoplanin, and Wilms' tumor gene product 1 (WT-1). The following activation solutions were used: 10 mM Tris buffer (pH 9.0) containing 1 mM ethylenediamine tetraacetate (EDTA) for calretinin, CK5/6, and podoplanin; and 10 mM citrate buffer (pH 6.0) containing 0.1% TWEEN® 20 (polyethylene glycol sorbitan monolaurate, polyoxyethylenesorbitan monolaurate) for WT-1, mesothelin, and the SKM9-2 antigen. The following primary antibodies were used: a rabbit anti-calretinin polyclonal antibody (PAD:DC8) (Life Technologies Japan Ltd., Tokyo, Japan) for calretinin; a mouse anti-cytokeratin 5,6 monoclonal antibody (D5/16B4) ([…] BIOSCIENCE INC.) for CK5/6; a mouse anti-human mesothelin monoclonal antibody (5B2) (Leica Microsystems, Inc., Bannockburn, IL) for mesothelin; a mouse anti-podoplanin monoclonal antibody (D2-40) (Roche Diagnostics K. K.) for podoplanin; and a mouse anti-human WT-1 monoclonal antibody (6F-H2) (Roche Diagnostics K. K.) for WT-1.
Subsequently, the detection characteristics of the SKM9-2 antibody for other carcinomas were compared with those of other antibodies to confirm the detection specificity to mesothelioma. In this measurement, the detection specificity of each antibody was measured for several carcinomas: gastric carcinoma, colorectal carcinoma, breast carcinoma, ovarian carcinoma, renal cell carcinoma, and urothelial carcinoma, which are more likely to present problems in differential diagnosis of mesothelioma, as “Other carcinomas”; carcinosarcoma, liposarcoma, rhabdomyosarcoma, leiomyosarcoma, fibrosarcoma, synovial sarcoma, gastrointestinal stromal sarcoma (GIST), Ewing's sarcoma, alveolar soft part sarcoma (ASPS), solitary fibrous tumor, malignant peripheral nerve sheath tumor (MPNST), angiosarcoma, epithelioid hemangioendothelioma, epithelioid angiosarcoma, and biphasic synovial sarcoma as “Soft tissue sarcoma”; and chondrosarcoma and osteosarcoma as “Bone sarcoma”.

[2] = tested on: healthy tissues without any apparent lesion; test: Immunohistological staining of normal tissues; parameters: species or system human
Protocol: as §1
In addition, the reactivity of the SKM9-2 antibody with normal tissues was examined by immunohistological staining. Immunostaining was performed by using the SKM9-2 antibody for healthy tissues without any apparent lesion.

[3] = tested on: HEG1 protein on the surface of ACC-MESO4 cells; test: Flow cytometry of ACC-MESO4 cells with antibody; type: cell-based, human; conditions: FITC-labeled anti-mouse IgG, flow cytometer
Protocol: First, ACC-MESO4 was cultured, and cells adhering to the culture dish were peeled off with a scraper. The cells peeled off were reacted with the SKM9-2 antibody, and then treated with FITC-labeled anti-mouse IgG, and analyzed by using a flow cytometer. […] If the SKM9-2 antibody binds to the extracellular region of HEG1 protein, cells are to be FITC-labeled and thus fluorescence would be observed in flow cytometry.

B1: SKM9-2 antibody: mouse monoclonal IgG1 kappa antibody binding glycosylated HEG1; heavy chain SEQ ID NO: 2, light chain SEQ ID NO: 4 (antibody, listed as Mus musculus)
heavy: MGWSSIILFLVATTTGVHSQVQLQQPGAELVRPGASVKLSCKASGFSFTTYWITWVKQRPGQGLEWIGMIHPSDSETRLSQTFKDKATLTVDKSSNTAYMQFSSPTSEDSAVYYCVRDFDVWGAGTTVTVSSAKTTPPSVYPLAPGSAAQTNSMVTLGCLVKGYFPEPVTVTWNSGSLSSGVHTFPAVLQSDLYTLSSSVTVPSSTWPSETVTCNVAHPASSTKVDKKIVPRDCGCKPCICTVPEVSSVFIFPPKPKDVLTITLTPKVTCVVVDISKDDPEVQFSWFVDDVEVHTAQTQPREEQFNSTFRSVSELPIMHQDWLNGKEFKCRVNSAAFPAPIEKTISKTKGRPKAPQVYTIPPPKEQMAKDKVSLTCMITDFFPEDITVEWQWNGQPAENYKNTQPIMDTDGSYFVYSKLNVQKSNWEAGNTFTCSVLHEGLHNHHTEKSLSHSPGK
light: MKLPVRLLVLMFWIPASISDVLMTQTPLSLPVSLGDQASISCRSSQNIVHNNGNTYLGWYLQKPGQSPKLLIFKVSNRFSGVPDRFSGSGSGTDFTLKISRVEAEDLGVYYCFQGSHIPRTFGGGTRLEIKRADAAPTVSIFPPSSEQLTSGGASVVCFLNNFYPKDINVKWKIDGSERQNGVLNSWTDQDSKDSTYSMSSTLTLTKDEYERHNSYTCEATHKTSTSPIVKSFNRNEC
- Bone sarcoma (positive cases/cases) ([1]; chondrosarcoma and osteosarcoma): 0/20
- Positive cases, epithelioid hemangioendothelioma ([1]; epithelioid hemangioendothelioma): 1/6
- Other carcinomas (positive cases/cases) ([1]; gastric, colorectal, breast, ovarian, renal cell, urothelial carcinoma): 1/60
- Positive cases, leiomyosarcoma ([1]; leiomyosarcoma): 1/10
- Lung carcinoma (positive cases/cases) ([1]; lung carcinoma): 0/98
- Specificity (%) ([1]; mesothelioma specificity over all non-mesothelioma tumors): 99.0%
- Soft tissue sarcoma (positive cases/cases) ([1]; soft tissue sarcoma): 2/132
- Positive cases, urothelial carcinoma ([1]; urothelial carcinoma): 1/10
- Number of positive cases/number of samples ([2]; Bladder and ureter): 0/5
- Number of positive cases/number of samples ([2]; Blood vessel, *Some cells were positive): *5/8
- Number of positive cases/number of samples ([2]; Bronchus): 0/12
- Number of positive cases/number of samples ([2]; Cerebrum): 0/29
- Number of positive cases/number of samples ([2]; Duodenum): 0/2
- Number of positive cases/number of samples ([2]; Esophagus): 0/2
- Number of positive cases/number of samples ([2]; Gallbladder): 0/5
- Number of positive cases/number of samples ([2]; Kidney): 0/10
- Number of positive cases/number of samples ([2]; Large intestine): 0/6
- Number of positive cases/number of samples ([2]; Liver): 0/8
- Number of positive cases/number of samples ([2]; Lung): 0/23
- Number of positive cases/number of samples ([2]; Lymph node): 0/4
- Number of positive cases/number of samples ([2]; Mammary gland): 0/5
- Number of positive cases/number of samples ([2]; Muscle): 0/4
- Number of positive cases/number of samples ([2]; Myocardium): 0/12
- Number of positive cases/number of samples ([2]; Ovary): 0/4
- Number of positive cases/number of samples ([2]; Pancreas): 0/10
- Number of positive cases/number of samples ([2]; Pericardium): 1/1
- Number of positive cases/number of samples ([2]; Peritoneum): 0/2
- Number of positive cases/number of samples ([2]; Pleura): 0/5
- Number of positive cases/number of samples ([2]; Prostate): 0/10
- Number of positive cases/number of samples ([2]; Stomach): 0/3
- Number of positive cases/number of samples ([2]; Testicular serosa): 0/1
- Number of positive cases/number of samples ([2]; Testis): 1/5
- Number of positive cases/number of samples ([2]; Thyroid): 0/5
- Reactivity with normal tissue cells ([2]; normal mesothelial cells other than pericardial mesothelial cells): Negative
- Reactivity with normal tissue cells ([2]; pericardial mesothelial cells): positive image
- Reactivity with normal tissue cells ([2]; seminiferous tubule, one case for the testis): positive
- Reactivity with normal tissue cells ([2]; vascular endothelial cells): positive image
- Binding to cell surface of ACC-MESO4 [3]: bind to a HEG1 protein part exposed on the surface of the cell membrane
